Test results from paper PMC3585155, “CELF Family RNA–Binding Protein UNC-75 Regulates Two Sets of Mutually Exclusive Exons of the unc-32 Gene in Neuron-Specific Manners in Caenorhabditis elegans”.

T1: FOX-1 (Caenorhabditis elegans, UniProt Q10572 1-429)
T1 sequence: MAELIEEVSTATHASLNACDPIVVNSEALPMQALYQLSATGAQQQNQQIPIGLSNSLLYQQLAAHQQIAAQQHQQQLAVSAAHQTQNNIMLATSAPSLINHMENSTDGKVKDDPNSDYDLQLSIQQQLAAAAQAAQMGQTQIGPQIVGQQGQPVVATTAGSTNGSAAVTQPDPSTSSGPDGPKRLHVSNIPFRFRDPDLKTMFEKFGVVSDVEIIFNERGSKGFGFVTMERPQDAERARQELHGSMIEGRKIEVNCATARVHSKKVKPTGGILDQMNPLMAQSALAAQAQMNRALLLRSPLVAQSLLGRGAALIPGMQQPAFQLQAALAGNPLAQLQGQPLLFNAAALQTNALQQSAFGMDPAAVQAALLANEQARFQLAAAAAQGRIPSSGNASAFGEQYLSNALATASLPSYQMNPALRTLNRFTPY

T2: ASD-1 (Caenorhabditis elegans, UniProt G5EEW7 1-404)
T2 sequence: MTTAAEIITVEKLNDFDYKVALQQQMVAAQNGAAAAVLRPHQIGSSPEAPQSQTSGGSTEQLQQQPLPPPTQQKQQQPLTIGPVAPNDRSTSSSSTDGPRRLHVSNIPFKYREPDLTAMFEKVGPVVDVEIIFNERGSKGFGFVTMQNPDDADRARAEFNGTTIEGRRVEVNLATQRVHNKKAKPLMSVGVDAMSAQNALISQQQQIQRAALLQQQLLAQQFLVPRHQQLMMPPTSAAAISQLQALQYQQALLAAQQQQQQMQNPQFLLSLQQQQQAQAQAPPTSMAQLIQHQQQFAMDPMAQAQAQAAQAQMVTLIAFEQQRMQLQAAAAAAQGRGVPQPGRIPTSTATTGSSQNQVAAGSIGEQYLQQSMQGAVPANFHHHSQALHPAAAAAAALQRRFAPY


Legend:
Experiment in all cases: EMSA; EMSA as described previously (ref 55); buffer, salt, pH and temperature not given
Conditions in all cases: protein: recombinant; tags: FLAG; label: 32P
[1] = molecular target: T1, FOX-1
[2] = molecular target: T2, ASD-1
[3] = molecular target: UNC-75(121-213) RRM2 (Caenorhabditis elegans, UniProt G5EE68 121-213)
[4] = molecular target: UNC-75(417-514) RRM3 (Caenorhabditis elegans, UniProt G5EE68 417-514)
[5] = molecular target: UNC-75(1-114) RRM1 (Caenorhabditis elegans, UniProt G5EE68 1-114)
[6] = molecular target: UNC-75(L431F) (Caenorhabditis elegans, UniProt G5EE68 1-514, L431F)
[7] = molecular target: UNC-75 (Caenorhabditis elegans, UniProt G5EE68 1-514)

Binder	binding result [4]	binding result [7]	also measured
GGGAGAGGUGAUGGGUAGUUUUUGCAUGAUUGU (ssRNA) [intron 7b WT probe]	–	–	binding result [1]: binds; binding result [2]: binds
Probe 2-1-1 (also printed 2-2-1) (ssRNA) RNA: GGGAGAUUAGCACGCACCCGCCUUCUACUGUCCCGUUACUUUUUGUUGUGUUGU	binds	binds	binding result [3]: no binding; binding result [5]: no binding; binding result [6]: no binding
Probe 2-1-1a (ssRNA) RNA: GGGAGAUUAAAAAAAACCCGCCUUCUACUGUCCCGUUACUUUUUGUUGUGUUGU	binds	binds	–
Probe 2-1-1b (ssRNA) RNA: GGGAGAUUAGCACGCAAAAAAAUUCUACUGUCCCGUUACUUUUUGUUGUGUUGU	binds	binds	–
Probe 2-1-1c (ssRNA) RNA: GGGAGAUUAGCACGCACCCGCCUUAUAAUAUCCCGUUACUUUUUGUUGUGUUGU	binds	binds	–
Probe 2-1-1d (ssRNA) RNA: GGGAGAUUAGCACGCACCCGCCUUCUACUGUAAAAUUAAUUUUUGUUGUGUUGU	binds	binds	–
Probe 2-1-1e (ssRNA) RNA: GGGAGAUUAGCACGCACCCGCCUUCUACUGUCCCGUUACUUUUUAUUAUAUUAU	no binding	no binding	–
